Data from patent US20030157554A1 (published 2003).

Columns and labels:
[1] = target: T1, STAU (Genbank ID: AF061939) (human, UniProt O95793 6-577); assay: Y2H 1x1 mating, binder AD fusion, target BD fusion
T1 construct: range 6-578; Prey from brain library; also called Staufen
T1 sequence (looked up): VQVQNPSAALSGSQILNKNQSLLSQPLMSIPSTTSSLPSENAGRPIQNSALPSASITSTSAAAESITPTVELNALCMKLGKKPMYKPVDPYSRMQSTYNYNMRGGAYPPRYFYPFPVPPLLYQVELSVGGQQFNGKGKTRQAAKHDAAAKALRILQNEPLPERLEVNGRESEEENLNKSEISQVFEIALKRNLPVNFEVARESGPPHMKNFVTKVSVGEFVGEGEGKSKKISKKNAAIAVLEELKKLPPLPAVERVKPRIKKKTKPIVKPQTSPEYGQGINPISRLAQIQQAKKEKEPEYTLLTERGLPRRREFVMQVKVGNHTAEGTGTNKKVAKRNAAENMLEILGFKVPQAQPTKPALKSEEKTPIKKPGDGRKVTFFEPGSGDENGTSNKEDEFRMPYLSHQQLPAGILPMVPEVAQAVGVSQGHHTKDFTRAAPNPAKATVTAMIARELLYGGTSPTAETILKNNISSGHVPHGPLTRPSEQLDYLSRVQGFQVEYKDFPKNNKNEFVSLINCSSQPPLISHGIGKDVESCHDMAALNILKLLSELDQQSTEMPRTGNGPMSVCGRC

[2] = target: the molecule itself; assay: Y2H 1x1 mating, binder AD fusion, target BD fusion
[3] = target: S100A6 (Genbank ID: M14300) (human, UniProt P06703 1-90); assay: Y2H 1x1 mating, binder AD fusion, target BD fusion
[4] = target: T2, S100A9 (Genbank ID: M26311) (human, UniProt P06702 1-114); assay: Y2H 1x1 mating, binder AD fusion, target BD fusion
T2 construct: range 1-114; Prey from liver and muscle libraries
T2 sequence (looked up): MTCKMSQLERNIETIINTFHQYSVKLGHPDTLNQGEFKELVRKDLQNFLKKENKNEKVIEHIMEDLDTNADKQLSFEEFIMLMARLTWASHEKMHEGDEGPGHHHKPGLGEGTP

[5] = target: the molecule itself; assay: Y2H, baits tested against each other
[6] = target: T3, S100A1-1 (human, UniProt P23297 1-94); assay: Y2H, baits tested against each other
T3 construct: Full-length bait; also called full length S100A1
T3 sequence (looked up): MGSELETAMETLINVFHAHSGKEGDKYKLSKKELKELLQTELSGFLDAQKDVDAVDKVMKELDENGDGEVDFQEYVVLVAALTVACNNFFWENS

[7] = target: T4, S100B-1 (human, UniProt P04271 1-92); assay: Y2H, baits tested against each other
T4 construct: Full-length bait; also called full length S100B
T4 sequence (looked up): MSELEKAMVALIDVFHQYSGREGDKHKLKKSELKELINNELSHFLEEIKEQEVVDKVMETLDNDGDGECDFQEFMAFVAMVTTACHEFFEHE

Measured: binding result

B1: PPP1R5 (Genbank ID: Y18207) (other, human, UniProt Q9UQK1 1-317, looked up)
chain: MSCTRMIQVLDPRPLTSSVMPVDVAMRLCLAHSPPVKSFLGPYDEFQRRHFVNKLKPLKSCLNIKHKAKSQNDWKCSHNQAKKRVVFADSKGLSLTAIHVFSDLPEEPAWDLQFDLLDLNDISSALKHHEEKNLILDFPQPSTDYLSFRSHFQKNFVCLENCSLQERTVTGTVKVKNVSFEKKVQIRITFDSWKNYTDVDCVYMKNVYGGTDSDTFSFAIDLPPVIPTEQKIEFCISYHANGQVFWDNNDGQNYRIVHVQWKPDGVQTQMAPQDCAFHQTSPKTELESTIFGSPRLASGLFPEWQSWGRMENLASYR
notes: Prey from brain, liver and muscle libraries
no binding: [1] | [2]

B2: S100B-2 (other, human, UniProt P04271 1-62, looked up)
chain: MSELEKAMVALIDVFHQYSGREGDKHKLKKSELKELINNELSHFLEEIKEQEVVDKVMETLD
notes: Truncated bait; also called truncated S100B
not listed: [1] | [2]
no binding: all other assays above
